{
  "source": "paper PMC5391958",
  "about": "“New function of aldoxime dehydratase: Redox catalysis and the formation of an expected product” (PLoS ONE, 2017)",
  "experiment_in_all_cases": "purified protein",
  "type_in_all_cases": "biochemical, Pseudomonas chlororaphis",
  "key": {"[1]": {"test_system": "T1, COc1ccccc1O", "T1 construct": "recombinant from pET-oxdA (mutants in pET-24a(+)), E. coli BL21-CodonPlus(DE3)-RIL, purified heme enzyme; Mr 40,127; no tag mentioned", "details": "apparent"}, "[2]": {"test_system": "T2, CCn1c(=NN=c2sc3cc(S(=O)(=O)O)ccc3n2CC)sc2cc(S(=O)(=O)O)ccc21", "T2 construct": "recombinant from pET-oxdA (mutants in pET-24a(+)), E. coli BL21-CodonPlus(DE3)-RIL, purified heme enzyme; Mr 40,127; no tag mentioned", "details": "apparent"}, "[3]": {"substrate": "CCn1c(=NN=c2sc3cc(S(=O)(=O)O)ccc3n2CC)sc2cc(S(=O)(=O)O)ccc21", "details": "apparent, 25 mM H2O2, 100 mM potassium phosphate pH 7.0, 30°C"}, "[4]": {"substrate": "COc1ccccc1O", "details": "apparent, 100 mM H2O2, 100 mM potassium phosphate pH 7.0, 30°C"}, "[5]": {"details": "100 mM H2O2, 100 mM potassium phosphate pH 7.0, 30°C"}, "[6]": {"details": "25 mM H2O2, 100 mM potassium phosphate pH 7.0, 30°C"}, "[7]": {"details": "10 mM H2O2, 100 mM potassium phosphate pH 7.0, 30°C"}},
  "data": [
    {"molecule": "OxdA(WT); aldoxime dehydratase (OxdA) (Pseudomonas chlororaphis subsp. chlororaphis; H320D)", "values": [
      {"measurement": "Km", "setting": "[1]; [5]", "result": "1000 ± 400", "unit": "µM"},
      {"measurement": "Vmax", "setting": "[1]; [5]", "result": 50, "unit": "µmol/min/mg"},
      {"measurement": "kcat", "setting": "[1]; [5]", "result": "33 ± 3", "unit": "s⁻¹"},
      {"measurement": "kcat/Km", "setting": "[1]; [5]", "result": 32000, "unit": "M⁻¹ s⁻¹"},
      {"measurement": "Km", "setting": "[2]; [6]", "result": "120 ± 20", "unit": "µM"},
      {"measurement": "Vmax", "setting": "[2]; [6]", "result": 33, "unit": "µmol/min/mg"},
      {"measurement": "kcat", "setting": "[2]; [6]", "result": "22 ± 1", "unit": "s⁻¹"},
      {"measurement": "kcat/Km", "setting": "[2]; [6]", "result": 190000, "unit": "M⁻¹ s⁻¹"}
    ]},
    {"molecule": "OxdA(WT); aldoxime dehydratase (OxdA) (Pseudomonas chlororaphis subsp. chlororaphis; H320A)", "values": [
      {"measurement": "Km", "setting": "[1]; [6]", "result": "840 ± 170", "unit": "µM"},
      {"measurement": "Vmax", "setting": "[1]; [6]", "result": 1.2, "unit": "µmol/min/mg"},
      {"measurement": "kcat", "setting": "[1]; [6]", "result": "0.81 ± 0.05", "unit": "s⁻¹"},
      {"measurement": "kcat/Km", "setting": "[1]; [6]", "result": 970, "unit": "M⁻¹ s⁻¹"},
      {"measurement": "Km", "setting": "[2]; [7]", "result": "210 ± 30", "unit": "µM"},
      {"measurement": "Vmax", "setting": "[2]; [7]", "result": 1.3, "unit": "µmol/min/mg"},
      {"measurement": "kcat", "setting": "[2]; [7]", "result": "0.85 ± 0.07", "unit": "s⁻¹"},
      {"measurement": "kcat/Km", "setting": "[2]; [7]", "result": 4000, "unit": "M⁻¹ s⁻¹"}
    ]},
    {"molecule": "OxdA(WT); aldoxime dehydratase (OxdA) (Pseudomonas chlororaphis subsp. chlororaphis) (protein, recombinant from pET-oxdA (mutants in pET-24a(+)), E. coli BL21-CodonPlus(DE3)-RIL, purified heme enzyme; Mr 40,127; no tag mentioned) MESAIDTHLKCPRTLSRRVPEEYQPPFPMWVARADEQLQQVVMGYLGVQYRGEAQREAALQAMRHIVSSFSLPDGPQTHDLTHHTDSSGFDNLMVVGYWKDPAAHCRWLRSAEVNDWWTSQDRLGEGLGYFREISAPRAEQFETLYAFQDNLPGVGAVMDSTSGEIEEHGYWGSMRDRFPISQTDWMKPTNELQVVAGDPAKGGRVVIMGHDNIALIRSGQDWADAEAEERSLYLDEILPTLQDGMDFLRDNGQPLGCYSNRFVRNIDLDGNFLDVSYNIGHWRSLEKLERWAESHPTHLRIFVTFFRVAAGLKKLRLYHEVSVSDAKSQVFEYINCHPHTGMLRDAVVAPT", "values": [
      {"measurement": "Km", "setting": "[3]", "result": "210 ± 40", "unit": "µM"},
      {"measurement": "Vmax", "setting": "[3]", "result": 3.4, "unit": "µmol/min/mg"},
      {"measurement": "kcat", "setting": "[3]", "result": "2.3 ± 0.1", "unit": "s⁻¹"},
      {"measurement": "kcat/Km", "setting": "[3]", "result": 11000, "unit": "M⁻¹ s⁻¹"},
      {"measurement": "Km", "setting": "[4]", "result": "26 ± 10", "unit": "µM"},
      {"measurement": "Vmax", "setting": "[4]", "result": 20, "unit": "µmol/min/mg"},
      {"measurement": "kcat", "setting": "[4]", "result": "14 ± 1", "unit": "s⁻¹"},
      {"measurement": "kcat/Km", "setting": "[4]", "result": 530000, "unit": "M⁻¹ s⁻¹"}
    ]}
  ]
}
